Measurements from FireProtDB (doi:10.1021/bi00123a006).

B1: Ribonuclease, P00648 (parent)
chain: MMKMEGIALKKRLSWISVCLLVLVSAAGMLFSTAAKTETSSHKAHTEAQVINTFDGVADYLQTYHKLPDNYITKSEAQALGWVASKGNLADVAPGKSIGGDIFSNREGKLPGKSGRTWREADINYTSGFRNSDRILYSSDWLIYKTTDHYQTFTKIR

Variants of: B1
Settings: Bacillus amyloliquefaciens, 25 °C, Urea, NMR, NaCl 1 M, structure 1BNI, whole UniProt chain shown

| Variant | ddG of mutation (higher = less stable) (pH 4.4, Sodium acetate 30 mM) | unfolding free energy (pH 4.4, Sodium acetate 30 mM) | ddG of mutation (higher = less stable) (pH 8.9, Tris 30 mM) | unfolding free energy (pH 8.9, Tris 30 mM) | unfolding free energy (pH 5.9, MES 30 mM) |
| --- | --- | --- | --- | --- | --- |
| G81H | 2.6 kcal/mol | 5.53 kcal/mol | 3.15 kcal/mol | 4.9 kcal/mol |  |
| H65G W141L |  |  | -0.33 kcal/mol | 8.38 kcal/mol | 8.11 kcal/mol |
| W141L |  |  | 0.64 kcal/mol | 7.41 kcal/mol | 7.67 kcal/mol |
| T53H | 2.65 kcal/mol | 5.48 kcal/mol | 1.56 kcal/mol | 6.49 kcal/mol |  |
| D101N | 2.65 kcal/mol | 5.48 kcal/mol | 2.32 kcal/mol | 5.73 kcal/mol |  |
| T73H D101N | 5.74 kcal/mol | 2.39 kcal/mol | 4.27 kcal/mol | 3.78 kcal/mol |  |
